Results published in US20090252729A1.

Tests used:
[1] = biological target: cynomolgus FcγR IIa (CD32a) (cynomolgus); assay: Alphascreen assay, cynomolgus FcγR CD32a (R)
[2] = biological target: cynomolgus FcγR III (CD16a) (cynomolgus) (UniProt Q8SPW2); assay: Alphascreen assay, cynomolgus FcγR CD16a
[3] = biological target: human FcRIII-GST (CD16a, V158) (human) (UniProt P08637); assay: Alphascreen assay, human FcγR CD16a
Chain of human FcRIII-GST (CD16a, V158) (human) (P08637 17-208 F176V limits assumed): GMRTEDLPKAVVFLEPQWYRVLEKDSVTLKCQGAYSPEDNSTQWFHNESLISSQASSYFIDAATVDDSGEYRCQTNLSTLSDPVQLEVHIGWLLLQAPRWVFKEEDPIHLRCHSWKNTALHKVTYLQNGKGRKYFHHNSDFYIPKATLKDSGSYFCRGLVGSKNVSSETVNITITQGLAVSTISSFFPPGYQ

Chain of cynomolgus FcγR III (CD16a) (cynomolgus) (Q8SPW2 17-208 limits assumed): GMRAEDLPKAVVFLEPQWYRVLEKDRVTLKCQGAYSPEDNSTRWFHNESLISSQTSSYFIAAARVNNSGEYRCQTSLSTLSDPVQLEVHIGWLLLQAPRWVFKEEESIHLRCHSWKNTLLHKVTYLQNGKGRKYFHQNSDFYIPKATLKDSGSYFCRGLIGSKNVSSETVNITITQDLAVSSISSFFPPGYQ

EC50 [1]: 1170 nM
EC50 [2]: 2320 nM
EC50 [3]: 1840 nM
Substance: Agly 5c8 IgG1 (antibody)
